In article PMC3563628, “Prevalence, Specificity and Determinants of Lipid-Interacting PDZ Domains from an In-Cell Screen and In Vitro Binding Experiments” (PLoS ONE, 2013):
Residue numbers refer to the chain shown, from its start. In names and notes the source's numbering stands. Where two headings read alike, the source gives them in different places.

Assays:
[1] = test system: eYFP-S1PDZ1-FYVE in MCF-7 cells; assay: Pharmacological treatment, localization of eYFP-S1PDZ1-FYVE; assay type: cell-based; details: wortmannin 500 nM or LY294002 50 µM for 30 min, YM201636 800 nM for 2 h
[2] = test system: eYFP-S1PDZ1-CASK in MCF-7 cells; assay: Pharmacological treatment, plasma membrane localization of eYFP-S1PDZ1-CASK; assay type: cell-based
[3] = test system: eYFP-S1PDZ1-MAGI3_3 and eYFP-S1PDZ1-IL16_1 in MCF-7 cells; assay: Pharmacological treatment, peroxisomal enrichment of eYFP-S1PDZ1-MAGI3_3 and eYFP-S1PDZ1-IL16_1; assay type: cell-based; details: wortmannin 500 nM, LY294002 50 µM, ionomycin 10 µM
[4] = test system: eYFP-S1PDZ1-MPDZ_7 in MCF-7 cells; assay: Pharmacological treatment, plasma membrane localization of eYFP-S1PDZ1-MPDZ_7; assay type: cell-based; details: ionomycin 10 µM
[5] = target: T1, DFNB31_1/K212E (with Y167W) (human, UniProt Q9P202 136-224, K212E | Y167W); assay: other fluorescence titration; equilibrium titration of peptide into Trp-engineered PDZ domain kept constant at 3 µM, followed by intrinsic tryptophan fluorescence; 25°C, 25 mM HEPES, 150 mM NaCl, pH 7.2, 1 mM beta-mercaptoethanol; details: both partners purified
T1 construct: first PDZ domain of human DFNB31 (whirlin); predicted PDZ domain with ten amino acids added on each side
T1 sequence: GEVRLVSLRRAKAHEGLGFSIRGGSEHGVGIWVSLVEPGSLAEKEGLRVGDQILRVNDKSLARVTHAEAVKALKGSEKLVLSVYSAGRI

DFNB31_1/Y167W = target: T2, DFNB31_1/Y167W (human, UniProt Q9P202 136-224, Y167W); assay: as above; details: both partners purified
T2 construct: first PDZ domain of human DFNB31 (whirlin); predicted PDZ domain (Interpro, PFAM, SMART) with ten amino acids of the original protein added on each side; also called first PDZ domain of DFNB31 with a Trp probe
T2 sequence: T1 sequence with E77K

[6] = target: T3, DFNB31_1/K209E (with Y167W) (human, UniProt Q9P202 136-224, K209E | Y167W); assay: as above; details: both partners purified
T3 construct: first PDZ domain of human DFNB31 (whirlin); predicted PDZ domain with ten amino acids added on each side; The text once prints R209E for this mutant; also called R209E (once in the text)
T3 sequence: T1 sequence with K74E, E77K

[7] = target: T4, DFNB31_1/R144E (with Y167W) (human, UniProt Q9P202 136-224, R144E | Y167W); assay: as above; details: both partners purified
T4 construct: first PDZ domain of human DFNB31 (whirlin); predicted PDZ domain with ten amino acids added on each side
T4 sequence: T1 sequence with R9E, E77K

[8] = target: T5, DFNB31_1/K206E (with Y167W) (human, UniProt Q9P202 136-224, K206E | Y167W); assay: as above; details: both partners purified
T5 construct: first PDZ domain of human DFNB31 (whirlin); predicted PDZ domain with ten amino acids added on each side
T5 sequence: T1 sequence with K71E, E77K

[9] = target: T6, DFNB31_1/R145E (with Y167W) (human, UniProt Q9P202 136-224, R145E | Y167W); assay: as above; details: both partners purified
T6 construct: first PDZ domain of human DFNB31 (whirlin); predicted PDZ domain with ten amino acids added on each side
T6 sequence: T1 sequence with R10E, E77K

CASK/I517W = target: T7, CASK/I517W (human, UniProt O14936 489-564); assay: as above; details: both partners purified
T7 chain: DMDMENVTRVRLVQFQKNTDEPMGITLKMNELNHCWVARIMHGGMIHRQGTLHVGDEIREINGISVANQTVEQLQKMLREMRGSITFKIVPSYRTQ

[10] = target: C-terminal peptide of usher (FTDTHL); assay: Equilibrium peptide binding titration followed by intrinsic tryptophan fluorescence; details: for Kd: Y167W mutation introduced as fluorescent probe, protein 3 µM, 25°C, pH 7.2
From the text: Given the overall low PtdInsPs specificities, and often modest PtdInsPs affinities, it is unlikely that PtdInsPs bindings alone target the PDZ domains to their defined subcellular compartments. Plausibly, peptide interactions are also involved in controlling the subcellular targeting. To address the interplay between PtdInsPs and peptide-binding we chose DFNB31_1 and CASK as models, taking two of the PDZ domains with well-defined cognate peptides. Cognate peptide ligands were the C-terminal peptides of usher (FTDTHL) for DFNB31_1 [50] and the TKEFYA peptide of syndecan-2 for CASK [51]. We measured the PDZ-peptide affinities by a fluorescence-based approach (Fig. 4E), by engineering Trp into the PDZ scaffolds and following the interactions by changes in intrinsic fluorescence, a strategy previously established for other PDZ domains (KD-values: DFNB31_1/Y167W for FTDTHL 46±6 µM; CASK/I157W for TKEFYA 280±20 µM), [52]. We then determined the apparent PtdIns(4,5)P2 affinities in presence of a (close to) saturating concentration of respective peptide (1 mM). The FTDTHL peptide appeared to compete for DFNB31_1-PtdIns(4,5)P2 interactions (KD ^PtdIns(4,5)P2 in presence of peptide >30 µM, Fig. 4F), which might indicate overlapping binding sites. […] We have previously reported on competitive binding by peptide and PtdIns(4,5)P2 with CASK [13]. However, in these experiments the peptide was linked to sepharose beads and PtdIns(4,5)P2 was present on micelles, which made it more difficult for the PDZ domain to simultaneously interact with the two ligands.
(§1) Spectrofluorimetric measurements were performed at 25°C in 25 mM HEPES, 150 mM NaCl, pH 7.2 and 1 mM beta-mercaptoethanol in a Carry Eclipse Spectrofluorimeter (Varian). The peptides corresponded to the C-termini of syndecan-2 (TKEFYA) and usher (FTDTHL) and were of high purity (purity >95%, GeneCust), and the experiment were performed and analyzed as described previously. Urea induced equilibrium unfolding experiments were performed using 1 µM of proteins (excitation 280 nm emission 320–380 nm) and the data fitted by a standard two-state model.

[11] = Urea induced equilibrium unfolding followed by fluorescence; assay type: physicochemical; details: Y167W background, ΔGD-N mut − ΔGD-N wt
Procedure: as §1
The effects of the mutations on the stability were calculated by ΔΔGD −N = ΔGD −Nmut − ΔGD −Nwt, where ΔΔGD-N is the difference between the free energies of unfolding upon mutation.

[12] = SPR equilibrium binding of his-tagged PDZ domains to PtdIns(4,5)P2 liposomes; details: for Kd: SPR equilibrium analysis, 5% PtdIns(4,5)P2 in DOPC liposomes, 25°C, pH 7.2, read-out: KD app PtdIns(4,5)P2
[13] = MCF-7, ionomycin 10 µM, PAO 100 µM, wortmannin 500 nM

For `Nc1ccc(C(=O)Nc2cccc(-c3nc(N4CCOCC4)c4oc5ncccc5c4n3)c2)cn1` [YM201636], the “localization of eYFP-S1PDZ1-FYVE upon treatment” value [1] was “accumulation of eYFP-S1PDZ1-FYVE at the limiting membranes”.

For `CCCCOc1cc(C(=O)NCCN(CC)CC)c2ccccc2n1` [dibucaine], the “plasma membrane localization of eYFP-S1PDZ1-CASK upon treatment” value [2, 13] was “failed to release”.

In the case of `COC[C@H]1OC(=O)c2coc3c2[C@@]1(C)C1=C(C3=O)[C@@H]2CCC(=O)[C@@]2(C)C[C@H]1OC(C)=O` [wortmannin], the “localization of eYFP-S1PDZ1-FYVE upon treatment” value [1] is reported as “lost”, the “peroxisomal enrichments of eYFP-S1PDZ1-MAGI3_3 and eYFP-S1PDZ1-IL16_1 upon treatment” value (from here on “peroxisomal enrichments”) [3] is reported as “did not alter” and the “plasma membrane localization of eYFP-S1PDZ1-CASK upon treatment” value [2, 13] is reported as “failed to release”.

For `C[C@H](CCC(=O)O)C[C@H](C)C[C@H](C)C(=O)/C=C(\O)[C@H](C)C[C@H](C)C/C=C/[C@@H](C)[C@@H](O)[C@@H](C)[C@@H](O)C[C@@H]1CC[C@@](C)([C@H]2CC[C@@](C)([C@@H](C)O)O2)O1` [ionomycin], the “plasma membrane localization of eYFP-S1PDZ1-MPDZ_7 upon treatment” value [4] was “not”, the “peroxisomal enrichments” value [3] was “did not alter” and the “plasma membrane localization of eYFP-S1PDZ1-CASK upon treatment” value [2] was “loss of membrane localization”.

In the case of `O=c1cc(N2CCOCC2)oc2c(-c3ccccc3)cccc12` [LY294002, 2-(4-morpholinyl)-8-phenyl-4H-1-benzopyran-4-one], the “localization of eYFP-S1PDZ1-FYVE upon treatment” value [1] is reported as “lost” and the “peroxisomal enrichments” value [3] is reported as “did not alter”.

B1: C-terminal peptide of usher (FTDTHL) (peptide)
peptide: FTDTHL
notes: last six residues; also called FTDTHL peptide; source: synthetic peptide, bought: GeneCust (purity >95%)
In the case of B1, the Kd [5] is reported as 220 ± 40 µM, the Kd (DFNB31_1/Y167W) is reported as 46 ± 6 µM and the Kd [6] is reported as 175 ± 15 µM. For the same molecule, the Kd [7] was 82 ± 3 µM, the Kd [8] was 111 ± 8 µM and the Kd [9] was 71 ± 8 µM.

B2: C-terminal peptide of syndecan-2 (TKEFYA) (peptide)
peptide: TKEFYA
notes: C-terminus of syndecan-2; last six residues; also called TKEFYA peptide of syndecan-2; source: synthetic peptide, bought: GeneCust (purity >95%)
B2 gave a Kd (CASK/I517W) of 280 ± 20 µM.

B3: DFNB31_1/Y167W: DFNB31_1 with Y167W mutation as fluorescent probe (protein)
chain: T1 sequence with E77K
modifications: left off: His6, N-terminal, state not stated
notes: DFNB31_1 with Y167W mutation as fluorescent probe
With B3 the Kd [10] was 46 ± 6 µM.

B4: DFNB31_1/R145E: DFNB31_1 PDZ domain mutant R145E (protein)
chain: T1 sequence with R10E, E77K
modifications: left off: His6, N-terminal, state not stated
Work on B4 yielded a Kd [10] of 71 ± 8 µM, a ΔΔGD-N [11] of -2.22 ± 0.21 kJ/mol and a Kd [12] of 15 ± 5 µM. For the same molecule, the “decrease in PtdIns(4,5)P2 binding upon mutation” value ([12]; versus wild type DFNB31_1) was 2 fold.

B5: DFNB31_1/K206E: DFNB31_1 PDZ domain mutant K206E (protein)
chain: T1 sequence with K71E, E77K
modifications: left off: His6, N-terminal, state not stated
With B5 the Kd [10] was 111 ± 8 µM, the “decrease in peptide binding affinity upon mutation” value ([10]; versus DFNB31_1 (Y167W background)) was 2 fold and the ΔΔGD-N [11] was 1.72 ± 0.13 kJ/mol. The Kd [12] was 8.2 ± 2 µM.

B6: DFNB31_1/R144E: DFNB31_1 PDZ domain mutant R144E (protein)
chain: T1 sequence with R9E, E77K
modifications: left off: His6, N-terminal, state not stated
With B6 the Kd [10] was 82 ± 3 µM, the ΔΔGD-N [11] was -2.72 ± 0.21 kJ/mol and the Kd [12] was greater than 20 µM.

B7: DFNB31_1/K209E: DFNB31_1 PDZ domain mutant K209E (protein)
chain: T1 sequence with K74E, E77K
modifications: left off: His6, N-terminal, state not stated
Molecule B7 has a Kd [10] of 175 ± 15 µM, a ΔΔGD-N [11] of -0.628 ± 0.042 kJ/mol and a Kd [12] greater than 20 µM.

B8: DFNB31_1/K212E: DFNB31_1 PDZ domain mutant K212E (protein)
chain: T1 sequence
modifications: left off: His6, N-terminal, state not stated
B8 gave a Kd [10] of 220 ± 40 µM, a ΔΔGD-N [11] of 5.02 ± 0.42 kJ/mol and a Kd [12] greater than 20 µM.
